For this data set, the system named is ATP. In words: switch fluorescence ratio, 500 uM ATP over buffer (Cy3 cluster intensity, sum of 5 cycles each) (fold (ratio)); higher = stronger signal-on switching upon ATP binding; sequences stand for … in TCGTCGGCAGCGTCAGATGTGTATAAGAGACAGTTTTTTTTTTTTTTTTTTTTTTTTT…TC. The conditions noted are these: aptamer strand: ATP DNA aptamer (quencher-CACCTGGGGGAGTATTGCGGAGGAAGG + anchor), 100 nM annealed; ATP concentration: 500 uM. The gist of the method: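 The quencher-labelled ATP aptamer, at 100 nM, was annealed to Cy3-labelled switching-strand clusters on a modified Illumina MiSeq flow-cell. The clusters were imaged in selection buffer, then after 15 min with 500 uM ATP at 22 °C, and this buffer/ATP cycle ran five times with NaOH stripping and re-annealing between runs. Per-cluster fluorescence ratios, summed target-cycle over summed buffer-cycle Cy3 intensity, were averaged per switch-domain sequence. Clusters outside 100-1000 RFU were excluded.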

± gives the standard deviation of the averaged measurements.
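Also: ATP exposure 15 min at 22 °C before imaging.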

Turning to TTTCTAGGCA, the switch fluorescence ratio was 1.01 ± 0.03. In the case of GATGGGGGCC it was 0.998 ± 0.026; in that of GTTGCGAGGG, 1.02 ± 0.016. On to TTAGGGGGGG, for which the switch fluorescence ratio stood at 1 ± 0.052. In the case of TTGATGAATT it was 1.01 ± 0.017. In the case of AATTGAGGCG it was 1.02 ± 0.089; in that of GTTAGTGTTT, 1.01 ± 0.013.

As to GGGTATAACA, the switch fluorescence ratio is 1.004 ± 0.0083. With AGTGCTTCGT, the switch fluorescence ratio came to 0.9905 ± 0.0094. Turning to AGAACCTTCG, the switch fluorescence ratio is 3.17 ± 0.38. Regarding TTGTCTGGGC, the switch fluorescence ratio was determined as 0.984 ± 0.032.

Take CCGGGTAAGG: the switch fluorescence ratio was 0.9989 ± 0.0045. In the case of TATAAACTGT it was 0.993 ± 0.015. CGAAGTGGGG: the switch fluorescence ratio worked out at 1.01 ± 0.026. In the case of CTATCACCTG it was 1.05 ± 0.021; in that of CAATATTTGC, 0.975 ± 0.035; in that of TGATGTTATG, 0.9911 ± 0.0025. The value for TAAATGATAT was 0.984 ± 0.02. The value for GGTATTAGCT was 1.01 ± 0.013. As to TTGAGGGCGG, the switch fluorescence ratio stood at 1.005 ± 0.0098. Turning to TATGATTGGC, the switch fluorescence ratio stood at 0.972 ± 0.061.

As for CATTTGTATT, the switch fluorescence ratio was 1.01 ± 0.038. Take AAGGGTTGG: the switch fluorescence ratio turned out to be 0.99 ± 0.015. In the case of TGGTCTTTTC it was 0.986 ± 0.02; in that of CGATCATGGT, 0.994 ± 0.011; in that of CAGTGGGGTG, 0.993 ± 0.03.

As for TCCGGCAAGT, the switch fluorescence ratio is 2.17 ± 0.13. ACTAAAGAGC: the switch fluorescence ratio worked out at 1.12 ± 0.2.

As to TCGGTAGGGA, the switch fluorescence ratio stood at 0.96 ± 0.021. Consider ATAAAGTTCC, for which the switch fluorescence ratio turned out to be 1.13 ± 0.038. The value for TGGCGTTGTG was 0.9928 ± 0.0017; that for CAAATCGTTT was 0.985 ± 0.038; that for TAGAGAGCTT was 0.986 ± 0.036.

TCTGTGAGGT: the switch fluorescence ratio was 1.034 ± 0.0072. Take TTGTATGGGA: the switch fluorescence ratio is 1.001 ± 0.0069.

On to TGCTCGGGCA, for which the switch fluorescence ratio came out at 1.014 ± 0.0072. In the case of ATATCCGTTT, the switch fluorescence ratio stood at 0.974 ± 0.066. In the case of AGATACTTTC, the switch fluorescence ratio is 1.03 ± 0.024. ATTTGGGCCT: the switch fluorescence ratio was determined as 1.02 ± 0.032.

On to TTTCTCCTTT, for which the switch fluorescence ratio was found to be 1.04 ± 0.035. Regarding TATTGTGTTC, the switch fluorescence ratio is 0.9965 ± 0.0035. The value for ACAGGTCTGT was 0.9797 ± 0.0047. For GGGGTTAACG, the switch fluorescence ratio turned out to be 0.996 ± 0.031. As to AAGGTTTTGG, the switch fluorescence ratio was found to be 1.15 ± 0.24. On to CCATATCTAT, for which the switch fluorescence ratio was determined as 1 ± 0.029.

Turning to TTCTTGTGTT, the switch fluorescence ratio came out at 0.993 ± 0.042. In the case of GCGTCTTCAT, the switch fluorescence ratio turned out to be 0.979 ± 0.011. As for ACTTTGGTAT, the switch fluorescence ratio was found to be 0.982 ± 0.029. Take TGCTTTTATT: the switch fluorescence ratio was 1 ± 0.022. As to TCGAGTTTTT, the switch fluorescence ratio came out at 0.996 ± 0.02. The value for TCGGCCCGTT was 1.01 ± 0.018; that for TATGGAAGAG was 0.977 ± 0.054; that for TTTCATACGA was 1.01 ± 0.045. The value for TTTGTACTCG was 1.01 ± 0.011. For the sequence TCGGGGTTAT, the switch fluorescence ratio was 1.04 ± 0.083. Take GTTGAATATG: the switch fluorescence ratio was 1.01 ± 0.029. Take AATCCAATGT: the switch fluorescence ratio was found to be 1.003 ± 0.0069.

As for ATCGATTTCG, the switch fluorescence ratio was found to be 0.975 ± 0.017. AAAGGAAGG: the switch fluorescence ratio came out at 0.995 ± 0.013. For the sequence CAGTTGGGTA, the switch fluorescence ratio stood at 0.98 ± 0.028. GCCTCTGGTC: the switch fluorescence ratio was 0.992 ± 0.028. Turning to TGCTTTGCCT, the switch fluorescence ratio was found to be 1.03 ± 0.013. Take AAGTTTTTGT: the switch fluorescence ratio came to 0.9997 ± 0.0081. Take CTCTGGTGGC: the switch fluorescence ratio was found to be 1.08 ± 0.054.

On to ATCTTTTTCT, for which the switch fluorescence ratio was 1.03 ± 0.052.

With GGGTATCACT, the switch fluorescence ratio came to 0.992 ± 0.016. Consider CAAAGAAAGG, for which the switch fluorescence ratio was determined as 0.95 ± 0.021.

Consider TTGGTCTTGA, for which the switch fluorescence ratio came to 0.994 ± 0.018.

For the sequence TTCTGGTGAT, the switch fluorescence ratio came to 0.999 ± 0.021.

As to AGATTTTCCG, the switch fluorescence ratio worked out at 1.01 ± 0.023.

Take AACAGCAGGC: the switch fluorescence ratio was 1.16 ± 0.013. As to TGGGAACCAG, the switch fluorescence ratio was determined as 0.999 ± 0.015. For TCTCGGGGTA, the switch fluorescence ratio worked out at 0.979 ± 0.046.

Take CCGGGGTTGA: the switch fluorescence ratio turned out to be 0.993 ± 0.074.

As to AGTTCTTATT, the switch fluorescence ratio was found to be 0.965 ± 0.037.

In the case of TATCGAGTGG, the switch fluorescence ratio was found to be 0.979 ± 0.058. Turning to CTGCTAGTTT, the switch fluorescence ratio came to 0.983 ± 0.016. ATAATTTGCG: the switch fluorescence ratio is 0.9814 ± 0.0073. On to AAGATCCGCT, for which the switch fluorescence ratio stood at 1.13 ± 0.027. For the sequence TTTGATCTTT, the switch fluorescence ratio was 1.01 ± 0.035. Turning to GATGGGGATA, the switch fluorescence ratio is 1.02 ± 0.013. With ATTTTTGGGG, the switch fluorescence ratio came to 1.006 ± 0.0088. For the sequence AGGTCTATTT, the switch fluorescence ratio worked out at 1.008 ± 0.0024.

For the sequence GTTGAGCGTC, the switch fluorescence ratio was 0.955 ± 0.032.

Take CTGGATAGCG: the switch fluorescence ratio was 0.981 ± 0.044. In the case of GGATGCAGC, the switch fluorescence ratio was found to be 0.992 ± 0.024. Regarding TTGCTGGGTG, the switch fluorescence ratio was determined as 1.1 ± 0.056. The value for AGGGGGGGTG was 1.05 ± 0.11; that for CAATCCATTG was 0.994 ± 0.024.

Take GTGTGCCGGG: the switch fluorescence ratio turned out to be 0.97 ± 0.0043. In the case of TGGGGGAACA it was 0.989 ± 0.018.

As for TTCTGTGCGG, the switch fluorescence ratio was 0.978 ± 0.029. The value for TTTAGAGTTT was 0.997 ± 0.032; that for AGCAGGGGTT was 1 ± 0.053; that for TGCTGTGGGG was 1 ± 0.029. As to CGATTTGTGT, the switch fluorescence ratio is 0.984 ± 0.011. On to GAGGGTGGCC, for which the switch fluorescence ratio came out at 1.03 ± 0.031. As for CTACTTTGGG, the switch fluorescence ratio amounted to 1.01 ± 0.027. TACATCTGAA: the switch fluorescence ratio was determined as 0.993 ± 0.023.

With TTTATGTACG, the switch fluorescence ratio came to 0.985 ± 0.054. For CGCCGGGGGG, the switch fluorescence ratio was found to be 1.04 ± 0.046. In the case of ACTGTTATGG it was 1.066 ± 0.0077. In the case of TAGCGGTTTC it was 0.9746 ± 0.005. For GCTTAGTATA, the switch fluorescence ratio stood at 1.01 ± 0.019. In the case of TTTCTTATTG it was 1.031 ± 0.0085; in that of ACGCGGAGTG, 1.02 ± 0.016. The value for GCCGCCACCT was 1.07 ± 0.019. Consider AGTATTGCGA, for which the switch fluorescence ratio turned out to be 0.974 ± 0.01. As for TGATGGAAAA, the switch fluorescence ratio came out at 0.998 ± 0.023. ATTTGGGT: the switch fluorescence ratio came out at 0.999 ± 0.021.

Regarding TGAGTAAGGG, the switch fluorescence ratio came to 0.991 ± 0.029. As to GCGAGTACGA, the switch fluorescence ratio is 1.02 ± 0.032. As for GAGGGAGGTA, the switch fluorescence ratio stood at 0.9658 ± 0.006.

Take TATTTGCTGT: the switch fluorescence ratio was found to be 1.001 ± 0.001. Consider AGGAGGGGCG, for which the switch fluorescence ratio is 0.983 ± 0.0099. Consider AAACGGCTCT, for which the switch fluorescence ratio was 0.967 ± 0.031. TGGTGGATCT: the switch fluorescence ratio was determined as 0.9904 ± 0.0063. As for GACATGAGTT, the switch fluorescence ratio is 0.984 ± 0.026. TAAATTGCG: the switch fluorescence ratio amounted to 0.9991 ± 0.0013. Consider TATAAAAGGC, for which the switch fluorescence ratio is 0.978 ± 0.045.
